The text below walks through data of the supplement of paper PMC10567573.

± gives the standard deviation.

This series is described as follows: protein stability index of a GFP-peptide fusion (GPS, HEK-293T) (PSI 1-6); higher = more stable. The note with it: c terminus: a fixed tail appended.
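Note: 24-mer peptide tiles fused after GFP, lentivirally expressed, FACS-sorted into six equal bins by GFP/DsRed ratio, decoded by Illumina sequencing, PSI is the read-weighted mean bin number.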

NLLLTYLIVTSLLLLPGLNQHGII [ARL6IP1]: the protein stability index runs as follows: (treatment: DMSO) 3.32 ± 0.47; (treatment: MLN4924 1 uM, 8 h) 3.25 ± 0.13.

On to NLLSIALYLLSGSIIAVAMQRGAR [POMT2], for which the protein stability index runs as follows: (treatment: DMSO) 3.2 ± 0.36; (treatment: MLN4924 1 uM, 8 h) 3.34 ± 0.13. For NLYVFGGYNPDYDESGGPDNEDYP [KLHDC10] the same measures were 3.9 ± 0.28 and 4.09 ± 0.22.

As for NMCLVATGGADAYYEMGIHCWDVA [IMPA1], the protein stability index is, setting by setting: (treatment: DMSO) 2.13 ± 0.23; (treatment: MLN4924 1 uM, 8 h) 2.3 ± 0.18. Taken in the same sequence, the figures for NNIMKCRSRYDGHRIWMYNCHIGG [LOXL2] were 2.5 ± 0.69 and 2.33 ± 0.42. With NPIQKEEDEGVDLSEGSSNEDEDL [SPANXN3], the protein stability index is 4.96 ± 0.43 (treatment: DMSO) and 4.95 ± 0.39 (treatment: MLN4924 1 uM, 8 h). For the sequence NPPAQPAPNAWQVIKGVLFRIFII [CLPTM1], the protein stability index worked out at 1.9 ± 0.18 (treatment: DMSO) and 2.09 ± 0.15 (treatment: MLN4924 1 uM, 8 h). On to NPTSAPGSRLAEFGAAGVNRLSIG [RSAD1], for which the protein stability index is, setting by setting: (treatment: DMSO) 3.87 ± 0.072; (treatment: MLN4924 1 uM, 8 h) 3.64 ± 0.28. Turning to NQQIHEQEKKILELEKLAEKNIIL [MTUS2], the protein stability index is, setting by setting: (treatment: DMSO) 4.13 ± 0.18; (treatment: MLN4924 1 uM, 8 h) 4.25 ± 0.17. Turning to NRIGNSGVEEIKGHPFFEGVDWEH [STK38L], the protein stability index by setting is: (treatment: DMSO) 4.32 ± 0.26; (treatment: MLN4924 1 uM, 8 h) 4.45 ± 0.21. The sequence NSCINPIALYFVSKKFKNCFQSCL [EDNRA] returned a protein stability index (treatment: DMSO) of 3.27 ± 0.34.

As for NSGLINHQRIHTGEKPYECVQCGK [ZNF24], the protein stability index was 3.92 ± 0.17 (treatment: DMSO) and 3.99 ± 0.31 (treatment: MLN4924 1 uM, 8 h). NSLDTTSWAWRGPGVLKVLWLTAS [LPCAT4] displayed a protein stability index (treatment: DMSO) of 2.43 ± 0.62 and a protein stability index (treatment: MLN4924 1 uM, 8 h) of 2.25 ± 0.47. With NSSQSSSDGSCKTAGEMVFVYENA [BTBD10], the protein stability index is, setting by setting: (treatment: DMSO) 4.22 ± 0.3; (treatment: MLN4924 1 uM, 8 h) 4.15 ± 0.22. Taken in the same sequence, the figures for NTSLHVFVLDENDNAPAVLHPRPD [PCDHGC5] were 3.49 ± 0.27 and 3.51 ± 0.2. Taken in the same sequence, the figures for NVLKSYIGLGHIYSGTFALIGAAA [CLCN6] were 3.63 ± 0.91 and 3.04 ± 0.32. Taken in the same sequence, the figures for NYFSAMYSSEDSTLASVPPAATFG [ELF3] were 3.06 ± 0.3 and 3.17 ± 0.43. Regarding NYRIMSYFKEAELKDLLLQVGRGL [WEE1], the protein stability index is, setting by setting: (treatment: DMSO) 2.46 ± 0.87; (treatment: MLN4924 1 uM, 8 h) 2.15 ± 0.4. For PAATMAVELHYEEGSPRNLGTPTS [C2CD2L] the same measures were 4.4 ± 0.17 and 4.52 ± 0.2. On to PAGAEYCSSARHPAWGHCFYRLYQ [SCNN1D], for which the protein stability index (treatment: DMSO) turned out to be 2.08 ± 0.38 and the protein stability index (treatment: MLN4924 1 uM, 8 h) was found to be 2.68 ± 0.35. Consider PAIIFEDANLDECIPATVRSSFAN [ALDH8A1], for which the protein stability index came out at 3.69 ± 0.15 (treatment: DMSO) and 3.72 ± 0.2 (treatment: MLN4924 1 uM, 8 h).

Turning to PASTPSVLSSEQEFQMFPKSRLSS [ETS2], the protein stability index reads like this: (treatment: DMSO) 4.57 ± 0.21; (treatment: MLN4924 1 uM, 8 h) 4.57 ± 0.24.

Take PDPPVNFLRQKVLSLPLPDPLKYY [PCMTD2]: the protein stability index came out at 2.85 ± 0.13 (treatment: DMSO) and 2.93 ± 0.079 (treatment: MLN4924 1 uM, 8 h). For PDSHQKRPQHSHSNKKRPSLDGRD [ELOA2], the protein stability index by setting is: (treatment: DMSO) 5.33 ± 0.17; (treatment: MLN4924 1 uM, 8 h) 5.14 ± 0.21. For PEKEYQRQVWLLFEYPESSGPARV [KCNA1] the same measures were 2.59 ± 0.29 and 2.06 ± 0.33.

On to PEKRTQYFDPLRNEYFFDRNRPSF [KCNA4], for which the protein stability index (treatment: DMSO) came to 2.74 ± 0.25 and the protein stability index (treatment: MLN4924 1 uM, 8 h) came out at 3.03 ± 0.13. In the case of PESQFPEFSTSLFSGSLEPVACGS [SRPK2], the protein stability index is, setting by setting: (treatment: DMSO) 4.21 ± 0.26; (treatment: MLN4924 1 uM, 8 h) 4.29 ± 0.064.

Regarding PFHDSDPSALFSKIRRGQFCIPEH [TRIB1], the protein stability index (treatment: DMSO) turned out to be 3.13 ± 0.25 and the protein stability index (treatment: MLN4924 1 uM, 8 h) worked out at 3.12 ± 0.44.

In the case of PGFSTLSLADQMSLLQSAWMEILI [ESRRG], the protein stability index turned out to be 2.27 ± 0.88 (treatment: DMSO) and 2.29 ± 0.4 (treatment: MLN4924 1 uM, 8 h). As for PGRSSVASPRRLSNVSSSGSINLL [MAP2], the protein stability index reads like this: (treatment: DMSO) 3.63 ± 0.16; (treatment: MLN4924 1 uM, 8 h) 3.48 ± 0.16. Turning to PHWLDKWMLTRKQFGLLSFFFAVL [STEAP1], the protein stability index is, setting by setting: (treatment: DMSO) 2.27 ± 0.28; (treatment: MLN4924 1 uM, 8 h) 2.26 ± 0.38. Taken in the same sequence, the figures for PIMAKEGQLYAMELQGFWMDIGQP [GMPPB] were 2.23 ± 0.25 and 2.14 ± 0.31. In the case of PKEPAPPNGSAAEPPTEAASREEN [PALM], the protein stability index came to 5.57 ± 0.25 (treatment: DMSO) and 5.37 ± 0.43 (treatment: MLN4924 1 uM, 8 h). For PKGLDDESKDYLSLYLLLVSCPKS [SPOPL] the same measures were 2.34 ± 0.38 and 2.95 ± 0.69. PLFMAAFDGRHSQTLKAMVQAWPF [PRAME]: the protein stability index is, setting by setting: (treatment: DMSO) 2.16 ± 0.13; (treatment: MLN4924 1 uM, 8 h) 2.07 ± 0.31. In turn, PLSDKGTTPLQLAIIRERSSCVKI [ASB7] showed a protein stability index (treatment: DMSO) of 2.64 ± 0.22 and a protein stability index (treatment: MLN4924 1 uM, 8 h) of 2.81 ± 0.4. Regarding PLTEQEESSPSHDRSRTVSASSTG [SRPK2], the protein stability index runs as follows: (treatment: DMSO) 5.25 ± 0.28; (treatment: MLN4924 1 uM, 8 h) 5.51 ± 0.23.
